The subject of this series is Escherichia coli TOP10. Nature of the series: shrunken log2 fold change of peptide-encoding DNA abundance (4.5 h post-induction vs induction); higher = less antimicrobial activity (less host growth inhibition). The note with it: time post-induction: 4.5 h; library: site-saturation at positions 5, 18, 19, 20.
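Note: peptides expressed intracellularly from a pBAD plasmid library in pooled LB shake-flask culture, induced with 0.3% L-arabinose, DNA abundance read by NGS, three biological replicates, DESeq2 with apeglm shrinkage.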

In the case of RRIRCRPPRLPRPRPRPCLHPRP, the “shrunken log2 fold change” value is -0.824.

RRIRVRPPRLPRPRPRPEKCPRP: the “shrunken log2 fold change” value was 0.0903.

Take RRIRHRPPRLPRPRPRPGKQPRP: the “shrunken log2 fold change” value was -0.173.

Consider RRIRYRPPRLPRPRPRPMFVPRP, for which the “shrunken log2 fold change” value is -0.228.

Turning to RRIRGRPPRLPRPRPRPIQYPRP, the “shrunken log2 fold change” value was -0.0751.

RRIRYRPPRLPRPRPRPLCEPRP: the “shrunken log2 fold change” value was -0.238.

With RRIRSRPPRLPRPRPRPNFLPRP, the “shrunken log2 fold change” value is -0.304.

With RRIRGRPPRLPRPRPRPGPFPRP, the “shrunken log2 fold change” value is 0.218.

Turning to RRIRERPPRLPRPRPRPRVWPRP, the “shrunken log2 fold change” value came out at 0.387.

On to RRIRIRPPRLPRPRPRPWFSPRP, for which the “shrunken log2 fold change” value was -0.201.

For RRIRLRPPRLPRPRPRPNQWPRP, the “shrunken log2 fold change” value is -0.117.

Turning to RRIRCRPPRLPRPRPRPYYMPRP, the “shrunken log2 fold change” value was -0.904.

On to RRIRMRPPRLPRPRPRPKDWPRP, for which the “shrunken log2 fold change” value was found to be 1.43.

Regarding RRIRGRPPRLPRPRPRPLINPRP, the “shrunken log2 fold change” value came to 0.116.

Take RRIRWRPPRLPRPRPRPEGFPRP: the “shrunken log2 fold change” value is 0.192.

RRIRIRPPRLPRPRPRPADIPRP: the “shrunken log2 fold change” value amounted to 0.00782.

With RRIRARPPRLPRPRPRPTFFPRP, the “shrunken log2 fold change” value was found to be 0.197.

Take RRIRLRPPRLPRPRPRPGQLPRP: the “shrunken log2 fold change” value is -0.0554.

Regarding RRIRMRPPRLPRPRPRPRGTPRP, the “shrunken log2 fold change” value was found to be 1.36.

With RRIRYRPPRLPRPRPRPNVYPRP, the “shrunken log2 fold change” value was -1.2.

Consider RRIRWRPPRLPRPRPRPQPTPRP, for which the “shrunken log2 fold change” value was 0.334.

For RRIRQRPPRLPRPRPRPHANPRP, the “shrunken log2 fold change” value is -0.671.

On to RRIRVRPPRLPRPRPRPETLPRP, for which the “shrunken log2 fold change” value was -0.223.

On to RRIRNRPPRLPRPRPRPGHFPRP, for which the “shrunken log2 fold change” value is 0.0512.

Turning to RRIRQRPPRLPRPRPRPPWCPRP, the “shrunken log2 fold change” value was found to be 0.0207.

Take RRIRGRPPRLPRPRPRPPDCPRP: the “shrunken log2 fold change” value is 1.28.

RRIRSRPPRLPRPRPRPAQLPRP: the “shrunken log2 fold change” value was -0.142.

As to RRIRIRPPRLPRPRPRPCDKPRP, the “shrunken log2 fold change” value is -0.0161.

Consider RRIRERPPRLPRPRPRPYWEPRP, for which the “shrunken log2 fold change” value was -0.219.

On to RRIRLRPPRLPRPRPRPIHAPRP, for which the “shrunken log2 fold change” value worked out at 0.111.

As for RRIRRRPPRLPRPRPRPTTTPRP, the “shrunken log2 fold change” value came out at 0.34.

Regarding RRIRLRPPRLPRPRPRPKIGPRP, the “shrunken log2 fold change” value was -0.251.

For the sequence RRIRYRPPRLPRPRPRPMCDPRP, the “shrunken log2 fold change” value was -0.987.

In the case of RRIRNRPPRLPRPRPRPMKAPRP, the “shrunken log2 fold change” value is -0.158.

For RRIRCRPPRLPRPRPRPKSTPRP, the “shrunken log2 fold change” value was -0.137.

Turning to RRIRARPPRLPRPRPRPFRLPRP, the “shrunken log2 fold change” value was found to be 0.114.

RRIRCRPPRLPRPRPRPHYPPRP: the “shrunken log2 fold change” value is -0.902.

Turning to RRIRGRPPRLPRPRPRPHECPRP, the “shrunken log2 fold change” value was determined as 0.504.

RRIRGRPPRLPRPRPRPGIAPRP: the “shrunken log2 fold change” value worked out at 0.864.

Regarding RRIRWRPPRLPRPRPRPKDVPRP, the “shrunken log2 fold change” value is -0.0454.

On to RRIRTRPPRLPRPRPRPMLRPRP, for which the “shrunken log2 fold change” value is 0.0141.

For RRIRPRPPRLPRPRPRPEWDPRP, the “shrunken log2 fold change” value is 0.269.

For the sequence RRIRSRPPRLPRPRPRPEFSPRP, the “shrunken log2 fold change” value amounted to 0.203.

Regarding RRIRKRPPRLPRPRPRPQFLPRP, the “shrunken log2 fold change” value turned out to be 0.0482.

For RRIRLRPPRLPRPRPRPTHYPRP, the “shrunken log2 fold change” value was -0.18.

As to RRIRRRPPRLPRPRPRPENMPRP, the “shrunken log2 fold change” value was 0.0592.

RRIRKRPPRLPRPRPRPWQVPRP: the “shrunken log2 fold change” value was -0.0062.

Turning to RRIRVRPPRLPRPRPRPKNIPRP, the “shrunken log2 fold change” value was -0.505.

As for RRIRKRPPRLPRPRPRPTEFPRP, the “shrunken log2 fold change” value is 0.00591.

On to RRIRGRPPRLPRPRPRPKEEPRP, for which the “shrunken log2 fold change” value was determined as 1.58.

Take RRIRARPPRLPRPRPRPSAHPRP: the “shrunken log2 fold change” value is 0.101.

Regarding RRIRNRPPRLPRPRPRPVQDPRP, the “shrunken log2 fold change” value is -0.302.

For the sequence RRIRQRPPRLPRPRPRPEICPRP, the “shrunken log2 fold change” value was 0.0414.

Take RRIRRRPPRLPRPRPRPYIGPRP: the “shrunken log2 fold change” value is -0.399.

Turning to RRIRSRPPRLPRPRPRPMTLPRP, the “shrunken log2 fold change” value was -0.103.

For the sequence RRIRCRPPRLPRPRPRPNISPRP, the “shrunken log2 fold change” value stood at 0.039.

In the case of RRIRKRPPRLPRPRPRPMTSPRP, the “shrunken log2 fold change” value stood at 0.0716.

Regarding RRIRCRPPRLPRPRPRPACEPRP, the “shrunken log2 fold change” value was 0.112.

Consider RRIRNRPPRLPRPRPRPEGLPRP, for which the “shrunken log2 fold change” value stood at 0.364.

Turning to RRIRQRPPRLPRPRPRPGHGPRP, the “shrunken log2 fold change” value is -0.124.

RRIRTRPPRLPRPRPRPFWVPRP: the “shrunken log2 fold change” value was -0.0427.

Regarding RRIRPRPPRLPRPRPRPTRFPRP, the “shrunken log2 fold change” value came out at 0.41.

Turning to RRIRERPPRLPRPRPRPVPMPRP, the “shrunken log2 fold change” value is -0.041.

For RRIRMRPPRLPRPRPRPCFTPRP, the “shrunken log2 fold change” value is -0.123.

On to RRIRGRPPRLPRPRPRPDAGPRP, for which the “shrunken log2 fold change” value came out at 0.601.

As for RRIRFRPPRLPRPRPRPTWLPRP, the “shrunken log2 fold change” value was determined as 0.299.

As to RRIRHRPPRLPRPRPRPTDCPRP, the “shrunken log2 fold change” value worked out at 0.038.

As for RRIRQRPPRLPRPRPRPVPVPRP, the “shrunken log2 fold change” value is -0.228.

RRIRGRPPRLPRPRPRPWPLPRP: the “shrunken log2 fold change” value was found to be 0.797.

As to RRIRSRPPRLPRPRPRPWALPRP, the “shrunken log2 fold change” value was -0.0699.

As to RRIRMRPPRLPRPRPRPHNSPRP, the “shrunken log2 fold change” value was -0.171.

For the sequence RRIRKRPPRLPRPRPRPFLNPRP, the “shrunken log2 fold change” value is 0.00977.

Consider RRIRIRPPRLPRPRPRPLDKPRP, for which the “shrunken log2 fold change” value was -0.141.

As for RRIRWRPPRLPRPRPRPRLVPRP, the “shrunken log2 fold change” value was determined as 0.476.

In the case of RRIRPRPPRLPRPRPRPTIHPRP, the “shrunken log2 fold change” value is -0.428.

Take RRIRWRPPRLPRPRPRPMALPRP: the “shrunken log2 fold change” value was -0.0125.

As to RRIRHRPPRLPRPRPRPNCQPRP, the “shrunken log2 fold change” value was 0.358.

As to RRIRWRPPRLPRPRPRPCGAPRP, the “shrunken log2 fold change” value stood at 0.525.

Consider RRIRKRPPRLPRPRPRPGHEPRP, for which the “shrunken log2 fold change” value turned out to be 0.127.

In the case of RRIRIRPPRLPRPRPRPRDMPRP, the “shrunken log2 fold change” value was -0.902.

Take RRIRTRPPRLPRPRPRPAEFPRP: the “shrunken log2 fold change” value is -0.355.

RRIRSRPPRLPRPRPRPKKHPRP: the “shrunken log2 fold change” value was -0.0966.

Consider RRIRNRPPRLPRPRPRPDWHPRP, for which the “shrunken log2 fold change” value is -0.394.

With RRIRFRPPRLPRPRPRPYLPPRP, the “shrunken log2 fold change” value is -0.216.

Regarding RRIRPRPPRLPRPRPRPEQFPRP, the “shrunken log2 fold change” value was -0.0226.

For RRIRLRPPRLPRPRPRPRRQPRP, the “shrunken log2 fold change” value worked out at 0.234.

As to RRIRNRPPRLPRPRPRPCSKPRP, the “shrunken log2 fold change” value was -0.0508.

Consider RRIRKRPPRLPRPRPRPITQPRP, for which the “shrunken log2 fold change” value is -0.00651.

As to RRIRHRPPRLPRPRPRPGMQPRP, the “shrunken log2 fold change” value worked out at 0.0824.

Regarding RRIRTRPPRLPRPRPRPHYGPRP, the “shrunken log2 fold change” value was -0.0891.

For RRIRTRPPRLPRPRPRPISFPRP, the “shrunken log2 fold change” value was -0.199.

For the sequence RRIRMRPPRLPRPRPRPTYDPRP, the “shrunken log2 fold change” value is 0.473.

Turning to RRIRVRPPRLPRPRPRPIQTPRP, the “shrunken log2 fold change” value is -0.0164.

As to RRIRKRPPRLPRPRPRPRECPRP, the “shrunken log2 fold change” value is -0.0199.

On to RRIRGRPPRLPRPRPRPNDWPRP, for which the “shrunken log2 fold change” value was 0.235.

Take RRIRMRPPRLPRPRPRPHNVPRP: the “shrunken log2 fold change” value worked out at 0.0515.

Consider RRIRPRPPRLPRPRPRPPGCPRP, for which the “shrunken log2 fold change” value was determined as 0.264.

Consider RRIRMRPPRLPRPRPRPSSWPRP, for which the “shrunken log2 fold change” value came out at 0.477.

In the case of RRIRFRPPRLPRPRPRPYQEPRP, the “shrunken log2 fold change” value was -0.0819.

As to RRIRVRPPRLPRPRPRPGDGPRP, the “shrunken log2 fold change” value is 0.532.

For the sequence RRIRTRPPRLPRPRPRPPMPPRP, the “shrunken log2 fold change” value came out at 0.144.

For the sequence RRIRIRPPRLPRPRPRPMFPPRP, the “shrunken log2 fold change” value was -0.724.

Take RRIRFRPPRLPRPRPRPNKKPRP: the “shrunken log2 fold change” value was -0.212.

As to RRIRRRPPRLPRPRPRPFFDPRP, the “shrunken log2 fold change” value amounted to 0.296.

As for RRIRIRPPRLPRPRPRPYLEPRP, the “shrunken log2 fold change” value was -0.849.

Turning to RRIRPRPPRLPRPRPRPDKVPRP, the “shrunken log2 fold change” value is -0.249.

With RRIRHRPPRLPRPRPRPCWAPRP, the “shrunken log2 fold change” value was found to be 0.00936.

Take RRIRRRPPRLPRPRPRPVEEPRP: the “shrunken log2 fold change” value stood at 0.105.

Turning to RRIRCRPPRLPRPRPRPPYIPRP, the “shrunken log2 fold change” value is -0.305.

For RRIRHRPPRLPRPRPRPILWPRP, the “shrunken log2 fold change” value is -0.0569.

Turning to RRIRFRPPRLPRPRPRPDNDPRP, the “shrunken log2 fold change” value was -0.188.

In the case of RRIRFRPPRLPRPRPRPLCCPRP, the “shrunken log2 fold change” value was -0.205.

On to RRIRVRPPRLPRPRPRPIEEPRP, for which the “shrunken log2 fold change” value is -0.181.

RRIRWRPPRLPRPRPRPADGPRP: the “shrunken log2 fold change” value turned out to be 0.0472.

On to RRIRQRPPRLPRPRPRPCIDPRP, for which the “shrunken log2 fold change” value was -0.424.

RRIRGRPPRLPRPRPRPRMRPRP: the “shrunken log2 fold change” value turned out to be 1.38.

Regarding RRIRMRPPRLPRPRPRPCIIPRP, the “shrunken log2 fold change” value was -0.798.

For the sequence RRIRPRPPRLPRPRPRPNIDPRP, the “shrunken log2 fold change” value is -0.468.

For the sequence RRIRSRPPRLPRPRPRPYHLPRP, the “shrunken log2 fold change” value is -0.415.

Turning to RRIRTRPPRLPRPRPRPRLDPRP, the “shrunken log2 fold change” value was -0.0828.

As to RRIRPRPPRLPRPRPRPMLLPRP, the “shrunken log2 fold change” value was determined as 0.0229.

Turning to RRIRLRPPRLPRPRPRPGQGPRP, the “shrunken log2 fold change” value was -0.0179.

On to RRIRVRPPRLPRPRPRPCSMPRP, for which the “shrunken log2 fold change” value was -0.177.

For the sequence RRIRRRPPRLPRPRPRPQGDPRP, the “shrunken log2 fold change” value turned out to be 0.0133.

Regarding RRIRRRPPRLPRPRPRPTCHPRP, the “shrunken log2 fold change” value turned out to be 0.0647.

These data come from the supplement of paper PMC9112550, “Optimization of the antimicrobial peptide Bac7 by deep mutational scanning” (BMC Biology, 2022).
